According to patent US11357816B2, “Ligand controling interaction between gags with their effector molecules and use thereof” (CENTRE NATIONAL DE LA RECHERCHE SCIENTIFIQUE (CNRS), priority 2018, dated 2022):

Biological target: T1, Sema-3A (Mus musculus, UniProt O08665)
T1 construct: Visual cortex of adult mice were dissected and lysed in homogenization buffer; from tissue; host or cells: adult mouse visual cortex
T1 sequence (O08665 21-772): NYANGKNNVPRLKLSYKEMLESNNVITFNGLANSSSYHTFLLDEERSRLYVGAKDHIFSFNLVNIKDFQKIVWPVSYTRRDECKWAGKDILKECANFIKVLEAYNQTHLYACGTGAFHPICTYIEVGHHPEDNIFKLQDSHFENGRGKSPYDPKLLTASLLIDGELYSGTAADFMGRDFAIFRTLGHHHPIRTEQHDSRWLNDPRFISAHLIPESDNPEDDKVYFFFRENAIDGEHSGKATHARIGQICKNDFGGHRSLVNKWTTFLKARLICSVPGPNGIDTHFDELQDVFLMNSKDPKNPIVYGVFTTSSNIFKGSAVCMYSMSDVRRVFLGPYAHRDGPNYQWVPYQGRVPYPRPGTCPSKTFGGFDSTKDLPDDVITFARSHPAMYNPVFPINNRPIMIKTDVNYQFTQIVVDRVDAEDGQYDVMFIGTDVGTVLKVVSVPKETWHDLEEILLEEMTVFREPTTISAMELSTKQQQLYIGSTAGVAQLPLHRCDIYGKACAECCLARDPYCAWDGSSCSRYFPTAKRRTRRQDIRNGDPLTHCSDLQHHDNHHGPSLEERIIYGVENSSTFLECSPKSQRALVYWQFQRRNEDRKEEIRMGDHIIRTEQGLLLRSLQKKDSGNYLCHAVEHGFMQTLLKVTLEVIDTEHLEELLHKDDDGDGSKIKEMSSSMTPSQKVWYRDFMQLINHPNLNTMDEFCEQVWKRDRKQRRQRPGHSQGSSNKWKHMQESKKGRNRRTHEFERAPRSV
Assay: Ligand pull-down with lysates of adult mouse visual cortex, western blot for Sema-3A
Assay type: binding
Conditions: ligand pre-incubated with 50 nmol peptide
Method: Visual cortex of adult mice were dissected and lysed in homogenization buffer (0.32 M sucrose, 5 mM HEPES, 10 mM MgCl2 and protease inhibitors). Samples were centrifuged (8 min, 1700 g) at 4° C. and the supernatant was incubated 2 hours at 37° C. with 5 nmol of GAG mimics. For the competition assay, ligands were pre-incubated 30 min with 50 nmol of RK-, AA- or SC-peptide at 37° C. prior to incubation overnight at 4° C. with streptavidin-coupled Dynabeads (Life technologies). The loaded beads were washed with homogenization buffer and heated 10 min at 95° C. in Laemmli buffer (with DTT) to detach proteins for western blot analysis.
Immunoprecipitated proteins were separated on NuPAGE 4-12% Bis-Tris pre-cast gels (Invitrogen) for 1 h at 200 V and transferred onto a methanol-activated PVDF membrane at 400 mA for 1 h. Membranes were blocked with 5% non-fat dry milk for 1 h before incubation with primary antibody anti-Sema3A (rabbit, 1/1000, Millipore) overnight at 4° C. […] Membranes were digitized with an LAS-4000 (Fujifilm) and quantified by densitometry with ImageJ.
To measure the in vivo activity and specificity of biotinylated GAG mimics, we performed biochemical and immunohistochemical analyses. […] We first focused on Sema-3A, as cortical Otx2 levels are too low to be reliably detected biochemically.

Sequence: RKQRRERTTFTRAQL [RKpep]
- disruption of Sema-3A interaction with (EC′AC′)6 by competing peptide: specifically disrupts Sema-3A interaction
